Data on two molecules can be found in patent US8097254.

For experiment [1], the target named is hen egg lysozyme (hen) (UniProt P00698). Kind of experiment: 125I-labelled (Iodogen) scFv loaded on antigen column, counting of flow-through and eluate.
Experiment [2] has as its target T1, recombinant ED-B domain of fibronectin (UniProt P02751 1266-1356, biotinylated (biotin disulfide N-hydroxysuccinimide ester) in ELISA and ECL competition; Cy5 at the N-terminal extremity in the band-shift analysis).
T1 construct: domain: ED-B; Recombinant fragment made as in Carnemolla et al. 1996; also called biotinylated ED-B; ED-B-biotin
Kind of experiment: SPR (BIAcore). Background: SPR reads the build-up and loss of mass on a sensor chip optically.

Experiment [3] deals with T1, recombinant ED-B domain of fibronectin. Kind of experiment: SPR (BIAcore), purified scFv.
Experiment [4] shares this target. The experiment can be described thus: Kd = koff/kon, koff from ECL competition, kon from BIAcore.
For experiment [5] the target is unchanged. The experiment can be described thus: competition of scFv-(ED-B-biotin) complex with excess unbiotinylated ED-B, electrochemiluminescent detection (Origen).

A value given as a limit tells only on which side of the number the result lay.

T1 sequence (P02751 1266-1356 limits assumed): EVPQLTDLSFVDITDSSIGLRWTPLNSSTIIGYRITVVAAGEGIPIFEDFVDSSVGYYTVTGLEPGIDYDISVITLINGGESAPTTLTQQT
Sequence of hen egg lysozyme (hen) (P00698 19-147): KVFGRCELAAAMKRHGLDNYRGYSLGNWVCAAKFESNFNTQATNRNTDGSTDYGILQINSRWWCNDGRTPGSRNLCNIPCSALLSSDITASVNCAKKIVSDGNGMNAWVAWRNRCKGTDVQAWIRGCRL

With scFv(D1.3), in experiment [1], the immunoreactivity is greater than 80%.

B1: scFv L19 (high-affinity anti-ED-B human scFv antibody fragment) (scFv)
chain: EVQLLESGGGLVQPGGSLRLSCAASGFTFSSFSMSWVRQAPGKGLEWVSSISGSSGTTYYADSVKGRFTISRDNSKNTLYLQMNSLRAEDTAVYYCAKPFPYFDYWGQGTLVTVSSGDGSSGGSGGASTGEIVLTQSPGTLSLSPGERATLSCRASQSVSSSYLAWYQQKPGQAPRLLIYYASSRATGIPDRFSGSGSGTDFTLTISRLEPEDFAVYYCQQTGRIPPTFGQGTKVEIKDDDSDDDYKDDDDKHHHHHH
modifications: in some assays labelled: iodine-125 (Iodogen, or via N-succinimidyl-3-(125I)-benzoate), astatine-211 via m-MeATE, Cy5-NHS, tin (IV) chlorin e6
What is called koff is a measure of how fast the partners let go of each other. One may read the kon as the second-order rate constant of association. The Kd is the concentration at which binding is half-saturated. On to B1, for which the off-rate (koff) amounted to 9.6e-05 s⁻¹ in experiment [2] and 6e-06 s⁻¹ in experiment [5]. Also, the association rate constant (kon) in experiment [3] is 110000 M⁻¹ s⁻¹. The Kd in experiment [4] is 0.054 nM.
